Measured values taken from patent publication US20130143793A1 (ZEALAND PHARMA A S, published 2013).
Bridge positions count the residues as written; N and C are the ends. Square brackets hold non-standard residues; d marks the D form. Ends that are not written are not given here. Orn = NCCC[C@H](N)C(=O)O

B1: [Glu9,Leu14,Phe25,Tyr13]Exendin-4(1-27)-Orn-Orn-[Leu2]Gastrin4 (peptide)
peptide: HGEGTFTSELSKYLEEEAVRLFIEFLK[Orn][Orn]WLDF-NH2
modifications: N-terminus assumed
SMILES: CC[C@H](C)[C@H](NC(=O)[C@H](Cc1ccccc1)NC(=O)[C@H](CC(C)C)NC(=O)[C@H](CCCNC(=N)N)NC(=O)[C@@H](NC(=O)[C@H](C)NC(=O)[C@H](CCC(=O)O)NC(=O)[C@H](CCC(=O)O)NC(=O)[C@H](CCC(=O)O)NC(=O)[C@H](CC(C)C)NC(=O)[C@H](Cc1ccc(O)cc1)NC(=O)[C@H](CCCCN)NC(=O)[C@H](CO)NC(=O)[C@H](CC(C)C)NC(=O)[C@H](CCC(=O)O)NC(=O)[C@H](CO)NC(=O)[C@@H](NC(=O)[C@H](Cc1ccccc1)NC(=O)[C@@H](NC(=O)CNC(=O)[C@H](CCC(=O)O)NC(=O)CNC(=O)[C@@H](N)Cc1c[nH]cn1)[C@@H](C)O)[C@@H](C)O)C(C)C)C(=O)N[C@@H](CCC(=O)O)C(=O)N[C@@H](Cc1ccccc1)C(=O)N[C@@H](CC(C)C)C(=O)N[C@@H](CCCCN)C(=O)N[C@@H](CCCN)C(=O)N[C@@H](CCCN)C(=O)N[C@@H](Cc1c[nH]c2ccccc12)C(=O)N[C@@H](CC(C)C)C(=O)N[C@@H](CC(=O)O)C(=O)N[C@@H](Cc1ccccc1)C(N)=O
B2: [Glu9,Leu14,Phe25,Tyr13]Exendin-4(1-27)-Orn-Orn-[Leu4]Gastrin6 (peptide)
peptide: HGEGTFTSELSKYLEEEAVRLFIEFLK[Orn][Orn]YGWLDF-NH2
modifications: N-terminus assumed
SMILES: CC[C@H](C)[C@H](NC(=O)[C@H](Cc1ccccc1)NC(=O)[C@H](CC(C)C)NC(=O)[C@H](CCCNC(=N)N)NC(=O)[C@@H](NC(=O)[C@H](C)NC(=O)[C@H](CCC(=O)O)NC(=O)[C@H](CCC(=O)O)NC(=O)[C@H](CCC(=O)O)NC(=O)[C@H](CC(C)C)NC(=O)[C@H](Cc1ccc(O)cc1)NC(=O)[C@H](CCCCN)NC(=O)[C@H](CO)NC(=O)[C@H](CC(C)C)NC(=O)[C@H](CCC(=O)O)NC(=O)[C@H](CO)NC(=O)[C@@H](NC(=O)[C@H](Cc1ccccc1)NC(=O)[C@@H](NC(=O)CNC(=O)[C@H](CCC(=O)O)NC(=O)CNC(=O)[C@@H](N)Cc1c[nH]cn1)[C@@H](C)O)[C@@H](C)O)C(C)C)C(=O)N[C@@H](CCC(=O)O)C(=O)N[C@@H](Cc1ccccc1)C(=O)N[C@@H](CC(C)C)C(=O)N[C@@H](CCCCN)C(=O)N[C@@H](CCCN)C(=O)N[C@@H](CCCN)C(=O)N[C@@H](Cc1ccc(O)cc1)C(=O)NCC(=O)N[C@@H](Cc1c[nH]c2ccccc12)C(=O)N[C@@H](CC(C)C)C(=O)N[C@@H](CC(=O)O)C(=O)N[C@@H](Cc1ccccc1)C(N)=O

Assays:
human GLP-1 receptor = human GLP-1 receptor (human, UniProt P43220 24-463); assay: cell-based or functional assay
human CCK-B receptor = target: T1, human CCK-B receptor (human, UniProt P32239 1-447); assay: cell-based or functional assay
T1 sequence (looked up): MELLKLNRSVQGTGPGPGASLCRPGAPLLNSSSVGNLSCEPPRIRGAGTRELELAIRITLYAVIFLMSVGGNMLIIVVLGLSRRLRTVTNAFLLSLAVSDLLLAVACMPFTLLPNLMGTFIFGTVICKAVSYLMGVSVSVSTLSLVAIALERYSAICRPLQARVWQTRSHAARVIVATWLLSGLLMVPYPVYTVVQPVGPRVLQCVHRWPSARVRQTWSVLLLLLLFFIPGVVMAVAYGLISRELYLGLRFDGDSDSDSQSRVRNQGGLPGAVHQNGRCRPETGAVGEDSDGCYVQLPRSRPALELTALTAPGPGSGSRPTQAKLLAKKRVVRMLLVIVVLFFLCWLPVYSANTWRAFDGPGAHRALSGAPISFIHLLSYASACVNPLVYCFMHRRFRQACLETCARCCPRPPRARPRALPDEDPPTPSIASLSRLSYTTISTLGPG

Binder | hGLP-1 R EC50 (cAMP) (human GLP-1 receptor) [pM] | hCCK-B R EC50 (p-ERK) (human CCK-B receptor) [nM]
HGEGTFTSELSKYLEEEAVRLFIEFLK[Orn][Peg3]WLDF-NH2 [[Glu9,Leu14,Phe25,Tyr13]Exendin-4(1-27)-Orn-Peg3-[Leu2]Gastrin4] | 46 | 10
HGEGTFTSDLSKYMEEEAVRLFIEWLKN[Peg3][Peg3]YGWLDF-NH2 [[Tyr13]Exendin-4(1-28)-Peg3-Peg3-[Leu4]Gastrin6] | 46 | 12
HGEGTFTSELSKYLEEEAVRLFIEFLK[Orn][Peg3]YGWLDF-NH2 [[Glu9,Leu14,Phe25,Tyr13]Exendin-4(1-27)-Orn-Peg3-[Leu4]Gastrin6] | 120 | 100
HGEGTFTSELSKYLEEEAVRLFIEFLK[Peg3][Peg3]YGFLDF-NH2 [[Glu9,Leu14,Phe25,Tyr13]Exendin-4(1-27)-Peg3-Peg3-[Leu4,Phe3]Gastrin6] | 32 | 1300
HGEGTFTSDLSKQMEEEAVKLFIEWLKN[Peg3][Peg3]YGWLDF-NH2 (lactam 20-24) [Side chain-cyclo([Lys20,Glu24]Exendin-4(1-28)-Peg3-Peg3-[Leu4]Gastrin6] | 32 | 4
HGEGTFTSDLSKYLEEEAVRLFIEFLK[Peg3][Peg3]YGWLDF-NH2 [[Tyr13,Leu14,Phe25]Exendin-4(1-27)-Peg3-Peg3-[Leu4]Gastrin6] | 44 | 
B1 | 110 | 860
HGEGTFTSELSKYLEEEAVRLFIEFLKYGWLDF-NH2 [[Glu9,Leu14,Phe25,Tyr13]Exendin-4(1-27)-[Leu4]Gastrin6] | 110 | 30
HGEGTFTSDLSKYLEEEAVRLFIEWLK[Peg3][Peg3]YGWLDF-NH2 [[Tyr13,Leu14]Exendin-4(1-27)-Peg3-Peg3-[Leu4]Gastrin6] | 50 | 8.4
HGEGTFTSELSKYLEEEAVRLFIEFLK[Peg3][Orn]WLDF-NH2 [[Glu9,Leu14,Phe25,Tyr13]Exendin-4(1-27)-Peg3-Orn-[Leu2]Gastrin4] | 41 | 51
HGEGTFTSDLSKQMEEEAVRLFIEWLKNYGWTDF (C-terminal amide) [Exendin-4(1-28)-[Thr4]Gastrin6] | 44 | 58
HGEGTFTSDLSKQMEEEAVRLFIEWLKNYGWLDF (C-terminal amide) [Exendin-4(1-28)-[Leu4]Gastrin6] | 61 | 14
HGEGTFTSDLSKQLEEEAVRLFIEWLKNYGWXDF (Nle at position 4 of the Gastrin6 moiety; C-terminal amide) [[Leu14]Exendin-4(1-28)-[Nle4]Gastrin6] | 52 | 24
HGEGTFTSDLSKQLEEEAVRLFIEWLKNYGWLDX (3-(3-Pyridyl)-alanine at position 6 of the Gastrin6 moiety; C-terminal amide) [[Leu14]Exendin-4(1-28)-[Leu4,[3-(3-Pyridyl)-Ala]6]Gastrin6] |  | 20
HGEGTFTSDLSKQMEEEAVRLFIEWLKNYGWFDF (C-terminal amide) [Exendin-4(1-28)-[Phe4]Gastrin6] | 44 | 140
HGEGTFTSDLSKQLEEEAVRLFIEWLKNYGXLDF (1Nal (1-naphthylalanine) at position 3 of the Gastrin6 moiety; C-terminal amide) [[Leu14]Exendin-4(1-28)-[1Nal3,Leu4]Gastrin6] | 40 | 270
HGEGTFTSELSKYLEEEAVRLFIEFLK[Peg3]YGWLDF-NH2 [[Glu9,Leu14,Phe25,Tyr13]Exendin-4(1-27)-Peg3-[Leu4]Gastrin6] |  | 54

Binder | hGLP-1 R EC50 (cAMP) (human GLP-1 receptor) [pM] | hCCK-B R EC50 (p-ERK) (human CCK-B receptor) [nM]
HGEGTFTSDLSRYLEKEAVRLFIEFLR[Peg3]YGWLDF-NH2 [[Arg12,27,Leu14,Lys16,Phe25,Tyr13]Exendin-4(1-27)-Peg3-[Leu4]Gastrin6] | 170 | 26
HGEGTFTSDLSKQMEEEAV[Orn]LFIEWLKN[Peg3][Peg3]YGWLDF-NH2 [[Orn20]Exendin-4(1-28)-Peg3-Peg3-[Leu4]Gastrin6] | 38 | 15
HGEGTFTSDLSKYMEEEAVRLFIEFLK[Peg3][Peg3]YGWLDF-NH2 [[Tyr13,Phe25]Exendin-4(1-27)-Peg3-Peg3-[Leu4]Gastrin6] | 35 | 8.4
HGEGTFTSELSKYLEEEAVRLFIEFLKWLDF-NH2 [[Glu9,Leu14,Phe25,Tyr13]Exendin-4(1-27)-[Leu2]Gastrin4] | 1200 | 211
HGEGTFTSDLSKQMEEEAVRLFIEWLKEEEEAYGWLDF (C-terminal amide) [Exendin-4(1-27)-[Leu4]Gastrin11] | 100 | 4.3
B2 | 110 | 16
HGEGTFTSELSKYLEEEAVRLFIEFLK[Peg3][Peg3]YGWLDF-NH2 [[Glu9,Leu14,Phe25,Tyr13]Exendin-4(1-27)-Peg3-Peg3-[Leu4]Gastrin6] | 46 | 20
HGEGTFTSDLSKYLEEEAVRLFIEFLK[Peg3][Peg3]YGFLDF-NH2 [[Leu14,Phe25,Tyr13]Exendin-4(1-27)-Peg3-Peg3-[Leu4,Phe3]Gastrin6] |  | 1200
HGEGTFTSELSKYLEEEAVRLFIEFLK[Peg3][Orn]YGWLDF-NH2 [[Glu9,Leu14,Phe25,Tyr13]Exendin-4(1-27)-Peg3-Orn-[Leu4]Gastrin6] | 87 | 8.8
HGEGTFTSDLSRYLEEEAVRLFIKFLR[Peg3]YGWLDF-NH2 [[Arg12,27,Leu14,Lys24,Phe25,Tyr13]Exendin-4(1-27)-Peg3-[Leu4]Gastrin6] | 130 | 36
HGEGTFTSDLSKQLEEEAVRLFIEFLKXXYGWLDF (Peg3-Peg3 linker; C-terminal amide) [[Leu14,Phe25]Exendin-4(1-27)-Peg3-Peg3-[Leu4]Gastrin6] | 26 | 7.9
HGEGTFTSDLSKYLEEEAVRLFIEFLR[Peg3]YGWLDF-NH2 [[Arg27,Leu14,Phe25,Tyr13]Exendin-4(1-27)-Peg3-[Leu4]Gastrin6] | 68 | 18
HGEGTFTSDLSRYLEEEAVKLFIEFLR[Peg3]YGWLDF-NH2 [[Arg12,27,Leu14,Lys20,Phe25,Tyr13]Exendin-4(1-27)-Peg3-[Leu4]Gastrin6] | 58 | 26
HGEGTFTSDLSRYLEEEAVRLFIEFLK[Peg3]YGWLDF-NH2 [[Arg12,Leu14,Phe25,Tyr13]Exendin-4(1-27)-Peg3-[Leu4]Gastrin6] | 79 | 14
HGEGTFTSDLSKQMEEEAVKLFIEWLKN[Peg3][Peg3]YGWLDF-NH2 (lactam 16-20) [Side chain-cyclo([Glu16,Lys20]Exendin-4(1-28)-Peg3-Peg3-[Leu4]Gastrin6] | 26 | 
HGEGTFTSELSKYLEEEAVRLFIEFLK[Peg3]WLDF-NH2 [[Glu9,Leu14,Phe25,Tyr13]Exendin-4(1-27)-Peg3-[Leu2]Gastrin4] | 60 | 13
HGEGTFTSDLSKQMEEEAVRLFIEWLKDXXYGWLDF (Peg3-Peg3 linker; C-terminal amide) [[Asp28]Exendin-4(1-28)-Peg3-Peg3-[Leu4]Gastrin6] | 61 | 3.3
